Reference: patent US20260151494A1 (ARO BIOTHERAPEUTICS, published 2026)

Assays:
[1] = molecular target: T1, human CD71 extracellular domain (human, UniProt P02786 89-760); assay: primary ELISA; also: test concentration or dose not given here
T1 construct: also called hCD71; CD71-ECD

[2] = molecular target: T2, human apical domain of CD71 (human, UniProt P02786 189-383, limits assumed); assay: primary ELISA; also: test concentration or dose not given here
T2 construct: domain: apical domain

[3] = molecular target: T1, human CD71 extracellular domain; assay: primary ELISA; signal over HSA control; as to RLU: test concentration or dose not given here
[4] = molecular target: T2, human apical domain of CD71; assay: primary ELISA; signal over HSA control; as to RLU: test concentration or dose not given here

T1 sequence (P02786 89-760): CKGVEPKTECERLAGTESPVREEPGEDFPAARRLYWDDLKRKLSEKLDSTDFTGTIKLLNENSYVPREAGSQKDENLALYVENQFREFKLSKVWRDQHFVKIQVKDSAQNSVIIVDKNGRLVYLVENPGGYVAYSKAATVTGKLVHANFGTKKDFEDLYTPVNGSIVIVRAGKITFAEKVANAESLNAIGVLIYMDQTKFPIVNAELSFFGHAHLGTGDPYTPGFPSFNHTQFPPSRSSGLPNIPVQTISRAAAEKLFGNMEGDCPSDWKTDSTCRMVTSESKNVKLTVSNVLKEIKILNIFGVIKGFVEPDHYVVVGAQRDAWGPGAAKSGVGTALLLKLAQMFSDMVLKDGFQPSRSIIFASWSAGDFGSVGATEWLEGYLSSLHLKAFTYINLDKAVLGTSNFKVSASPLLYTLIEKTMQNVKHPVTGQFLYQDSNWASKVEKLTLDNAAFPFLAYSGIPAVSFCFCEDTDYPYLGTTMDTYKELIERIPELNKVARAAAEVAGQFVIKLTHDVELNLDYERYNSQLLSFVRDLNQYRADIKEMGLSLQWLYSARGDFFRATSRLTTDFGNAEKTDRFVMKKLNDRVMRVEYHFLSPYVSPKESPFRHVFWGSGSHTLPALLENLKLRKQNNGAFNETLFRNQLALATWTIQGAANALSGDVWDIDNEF
T2 sequence (P02786 189-383 limits assumed): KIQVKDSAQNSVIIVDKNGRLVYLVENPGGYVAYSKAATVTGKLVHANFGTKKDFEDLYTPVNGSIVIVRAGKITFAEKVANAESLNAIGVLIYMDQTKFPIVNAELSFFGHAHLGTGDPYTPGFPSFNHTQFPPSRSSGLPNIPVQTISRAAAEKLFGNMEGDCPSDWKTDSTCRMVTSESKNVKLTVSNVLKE

Binder	RLU [1] [RLU]	RLU [2] [RLU]	hCD71:HSA [3] [ratio]	Apical domain:HSA [4] [ratio]
CD71-binding FN3 domain SEQ ID NO 380 (designed binder) MLPAPKNLVVSRVTEDSARLSWTAPDAAFDSFFIGYLEPQPPGEAIGLFVPGSERSYDLTGLKPGTEYNVTIQGVKGGFPSMPLSAIFTT	5.32e+06	6.5e+06	21	25
CD71-binding FN3 domain SEQ ID NO 349 (designed binder) MLPAPKNLVVSRVTEDSARLSWTAPDAAFDSFFIGYLEPQPPGEAIELYVPGSERSYDLTGLKPGTEYNVTIQGVKGGFPSEPLIAHFTT	6.37e+06	6.87e+06	22	23
CD71-binding FN3 domain SEQ ID NO 350 (designed binder) MLPAPKNLVVSRVTEDSARLSWTAPDAAFDSFFIGYLEPQPPGEAISLFVPGSERSYDLTGLKPGTEYNVTIQGVKGGFPSMPLVAQFTT	5.96e+06	6.7e+06	127	143
CD71-binding FN3 domain SEQ ID NO 357 (designed binder) MLPAPKNLVVSRVTEDSARLSWTAPDAAFDSFFIGYLEPQPPGEAIGLFVPGSERSYDLTGLKPGTEYNVTIQGVKGGFPSDPLVAYFTT	5.62e+06	6.34e+06	16	18
CD71-binding FN3 domain SEQ ID NO 363 (designed binder) MLPAPKNLVVSRVTEDSARLSWTAPDAAFDSFFIGYLEPQPPGEAIDLWVPGSERSYDLTGLKPGTEYNVTIQGVKGGFPSLPLSAIFTT	4.18e+06	4.91e+06	273	320
CD71-binding FN3 domain SEQ ID NO 355 (designed binder) MLPAPKNLVVSRVTEDSARLSWTAPDAAFDSFFIGYLEPQPPGEAIHLYVPGSERSYDLTGLKPGTEYNVTIQGVKGGFPSHPLYADFTT	3.58e+06	5.91e+06	257	424
CD71-binding FN3 domain SEQ ID NO 354 (designed binder) MLPAPKNLVVSRVTEDSARLSWTAPDAAFDSFFIGYLEPQPPGEAIQLWVPGSERSYDLTGLKPGTEYNVTIQGVKGGFPSLPLVATFTT	5.75e+06	5.25e+06	155	142
CD71-binding FN3 domain SEQ ID NO 346 (designed binder) MLPAPKNLVVSRVTEDSARLSWTAPDAAFDSFFIGYLEPQPPGEAISLFVPGSERSYDLTGLKPGTEYNVTIQGVKGGFPSDPLNATFNT	5e+06	6.82e+06	61	83
CD71-binding FN3 domain SEQ ID NO 351 (designed binder) MLPAPKNLVVSRVTEDSARLSWTAPDAAFDSFFIGYLEPQPPGEAITLAVPGSERSYDLTGLKPGTEYNVTIQGVKGGFPSNPLLAAFTT	2.67e+06	2.87e+06	322	345
CD71-binding FN3 domain SEQ ID NO 360 (designed binder) MLPAPKNLVVSRVTEDSARLSWTAPDAAFDSFFIGYLEPQPPGEAISLYVPGSERSYDLTGLKPGTEYNVTIQGVKGGFPSHPLLAVFTT	5.78e+06	5.37e+06	155	144
CD71-binding FN3 domain SEQ ID NO 361 (designed binder) MLPAPKNLVVSRVTEDSARLSWTAPDAAFDSFFIGYLEPQPPGEAIQLFVPGSERSYDLTGLKPGTEYNVTIQGVKGGFPSIPLSALFTT	3.08e+06	5.01e+06	210	342
CD71-binding FN3 domain SEQ ID NO 347 (designed binder) MLPAPKNLVVSRVTEDSARLSWTAPDAAFDSFFIGYLEPQPPGEAIGLFVPGSERSYDLTGLKPGTEYNVTIQGVKGGFPSEPLKAAFTT	4.1e+06	5.95e+06	116	168
CD71-binding FN3 domain SEQ ID NO 356 (designed binder) MLPAPKNLVVSRITEDSARLSWTAPDAAFDSFFIGYLEPQPPGEAITLLVPASERSYDLTGLKPGTEYNVTIQGVKGGFPSHPLQAQFTT	3.92e+06	6.37e+06	207	337
CD71-binding FN3 domain SEQ ID NO 353 (designed binder) MLPAPKNLVVSRVTEDSARLSWTAPDAAFDSFFIGYLEPQPPGEAIGLFVPGSERSYDLTGLKPGTEYNVTIQGVKGGFPSNPLEARFTT	4.54e+06	6.87e+06	53	80

Continued, values first:

RLU [1] [RLU]	RLU [2] [RLU]	hCD71:HSA [3] [ratio]	Apical domain:HSA [4] [ratio]	Binder
5.82e+06	6.19e+06	121	129	CD71-binding FN3 domain SEQ ID NO 389 (designed binder) MLPAPKNLVVSRVTEDSARLSWTAPDAAFDSFFIGYLEPQPPGEAIHLLVPGSERSYDLTGLKPGTEYNVTIQGVKGGFPSMPLSAIVTT
3.82e+06	3.66e+06	172	165	CD71-binding FN3 domain SEQ ID NO 369 (designed binder) MLPAPKNLVVSRVTEDSARLSWTAPDAAFDSFFIGYLEPQPPGEAIVLWVPGSERSYDLTGLKPGTEYNVTIQGVKGGFPSHPLVAKSTT
1.79e+06	3.88e+06	203	441	CD71-binding FN3 domain SEQ ID NO 387 (designed binder) MLPAPKNLVVSRVTEDSARLSWTAPDAAFDSFFIGYLEPQPPGEAIHLVVPGSERSYDLTGLKPGTEYNVTIQGVKGGFPSDPLYAWFTT
1.85e+06	4.33e+06	94	220	CD71-binding FN3 domain SEQ ID NO 383 (designed binder) MLPAPKNLVVSRVTEDSARLSWTAPDAAFDSFFIGYLEPQPPGEAIDLWVPGSERSYDLTGLKPGTEYNVTIQGVKGGFPSLPLDAVFTT
1.57e+06	3.43e+06	125	274	CD71-binding FN3 domain SEQ ID NO 377 (designed binder) MLPAPKNLVVSRVTEDSARLSWTAPDAAFDSFFIGYLEPQPPGEAIQLWVPGSERSYDLTGLKPGTEYNVTIQGVKGGFPSTPLQALFTT
2.29e+06	3.37e+06	213	313	CD71-binding FN3 domain SEQ ID NO 366 (designed binder) MLPAPKNLVVSRVTEDSARLSWTAPDAAFDSFFIGYLEPQPPGEAIDLWVPGSERSYDLTGLKPGTEYNVTIQGVKGGFPSNPLKAQFTT
5.53e+06	6.23e+06	218	246	CD71-binding FN3 domain SEQ ID NO 368 (designed binder) MLPAPKNLVVSRVTEDSARLSWTAPDAAFDSFFIGYLEPQPPGEAITLTVPGSERSYDLTGLKPGTEYNVTIQGVKGGFPSGPLIASFTT
5.83e+06	6.5e+06	60	67	CD71-binding FN3 domain SEQ ID NO 364 (designed binder) MLPAPNNLVVSRVTEDSARLSWTAPDAAFDSFFIGYLEPQPPGEAIHLFVPGSERSYDLTGLKPGTEYNVTIQGVKGGFPSGPLHATFTT
4.86e+06	5.73e+06	98	115	CD71-binding FN3 domain SEQ ID NO 373 (designed binder) MLPAPKNLVVSRVTEDSARLSWTAPDAAFDSFFIGYLEPQPPGEAISLFVPGSERSYDLTGLKPGTEYNVTIQGVKGGFPSDPLVASFTT
2.01e+06	2.55e+06	160	203	CD71-binding FN3 domain SEQ ID NO 382 (designed binder) MLPAPKNLVVSRVTEDSARLSWTAPDAAFDSFFIGYLEPQPPGEAIELYVPGSERSYDLTGLKPGTEYNVTIQGVKGGFPSDPLEADFTT
6.12e+06	6.12e+06	76	76	CD71-binding FN3 domain SEQ ID NO 378 (designed binder) MLPAPKNLVVSRVTEDSARLSWTAPDAAFDSFFIGYLEPQPPGEAIDLWVPGSERSYDLTGLKPGTEYNVTIQGVKGGFPSTPLIATVTT
5.96e+06	6.47e+06	153	167	CD71-binding FN3 domain SEQ ID NO 376 (designed binder) MLPAPKNLVVSRVTEDSARLSWTAPDAAFDSFFIGYLEPQPPGEAIALLVPGSERSYDLTGLKPGTEYNVTIQGVKGGFPSNPLEAKFTT
2.8e+06	4.63e+06	124	205	CD71-binding FN3 domain SEQ ID NO 372 (designed binder) MLPAPKNLVVSRVTEDSARLSWTAPDAAFDSFFIGYLEPQPPGEAINLLVPGSERSYDLTGLKPGTEYNVTIQGVKGGFPSLPLLAEFTT
2.82e+06	2.09e+06	187	139	CD71-binding FN3 domain SEQ ID NO 375 (designed binder) MLPAPKNLVVSRVTEDSARLSWTAPDAAFDSFFIGYLEPQPPGEAIDLTVPGSERSYDLTGLKPGTEYNVTIQGVKGGFPSMPLSAIFTT
5.74e+06	5.91e+06	142	146	CD71-binding FN3 domain SEQ ID NO 385 (designed binder) MLPAPKNLVVSRVTEDSARLSWTAPDAAFDSFFIGYLEPQPPGEAIDLYVPGSERSYDLTGLKPGTEYNVTIQGVKGGFPSHPLQAHFTT
6.85e+06	6.7e+06	67	65	CD71-binding FN3 domain SEQ ID NO 365 (designed binder) MLPAPKNLVVSRVTEDSARLSWTAPDAAFDSFFIGYLEPQPPGEAIVLWVPGSERSYDLTGLKPGTEYNVTIQGVKGGFPSHPLVAKFTT
